Test results as given in patent US12527876B2, “Insulin-like growth factor-chemotherapeutic conjugate for treating myelodysplastic syndrome” (IGF Oncology, LLC, priority 2017, dated 2026).

Tests used:
[1] = test system: MCF-7 tumor cells; assay: In vitro cytotoxicity assay: inhibition of proliferation of MCF-7 cells, CCK-8 (Example 6); assay type: cell-based; conditions: Homo sapiens, MCF7, read-out: IC50 (50% inhibition of cell proliferation)
Experimental: Day 0. Five-thousand MCF7 cells were plated per well in a 96-well test plate in 100 ul of rich media on day 0.
Day 1. A shadow plate was made for each test plate, with each well of the shadow plate containing media or 3× the intended final concentration of test agent in media in each well. As a negative control, media is used.
After making the shadow plate, 50 ul is transferred from each well of the shadow plate to the corresponding well of the test plate to generate the final concentrations of test agent in the wells of the test plate.
Day 5. Cell proliferation is determined by adding Dojindo CCK-8 reagent and incubating and measuring absorbance of the dye according to the manufacturer's instructions.

[2] = test system: LNCaP cells; assay: In vitro proliferation assay of LNCaP cells, Cell Counting Kit-8; assay type: cell-based, human; conditions: highest tested concentration of 2000 nM, P=0.003, IGF-MTX = long-R3-IGF conjugate
Experimental: LNCaP cells were plated in a 96-well plate at 5,000 cells per well in RPMI+glutamine+10% FCS medium in 100 μl. After 24 hours, 100 μl fresh medium was added containing no drug (control), IGF-MTX or MTX at the indicated concentration. After 48 hours of further incubation, cell proliferation was assayed with the Cell Counting Kit-8 (Dojindo Molecular Technologies, Kumamoto, Japan) according to the manufacturer's instructions.

[3] = test system: MCF7 cells; assay: In vitro proliferation assay of MCF7 cells, tritiated thymidine (Example 15); assay type: cell-based, human
Experimental: MCF7 was cultured in Eagle's Minimum Essential Medium, with 0.01 mg/ml human recombinant insulin, 10% fetal bovine serum, and pen/strep. For in vitro proliferation assays it was plated at 8,000 cells per well in a 96-well plate. […] After 5 more days, 1 uCi tritiated thymidine was added per well in 50 ul fresh medium. Six hours later the cells were harvested and radioactivity counted.

[4] = test system: MCF7 tumors; assay: In vivo tumor growth inhibition, MCF7 xenografts; parameters: species or system nu/nu mice; conditions: IV days 0, 4 and 8; IGF-MTX (long-R3-IGF-1-methotrexate) 10 nmol of MTX/g, free MTX 40 nmol/g
Experimental: (§1) MCF7 cells (human breast adenocarcinoma cell line) were grown in Eagle's minimal essential medium supplemented with 0.1 mg/ml insulin and 10% FCS. The estrogen-dependent MCF7-L cell line was a gift from Deepali Sachdev of the University of Minnesota. MCF7-L cells were grown in modified IMEM medium (Invitrogen, Carlsbad, California, USA) supplemented with 0.1 mg/ml insulin. LNCaP cells (metastatic human prostatic adenocarcinoma) were grown in RPMI supplemented with glutamine and 10% FCS (Invitrogen, Carlsbad, California, USA). Cells were grown at 37° C. in a 5% CO2 humidified atmosphere. In each case, cells were grown to approximately two-thirds confluence, harvested by trypsinization, washed with rich medium and then washed twice with PBS and resuspended in phosphate buffered saline in BD matrigel matrix (Becton Dickinson, Franklin Lakes, New Jersey, USA). Cells were injected intradermally in mice on the back. An estrogen pellet (0.5 mg estradiol, 60-day release, Innovative Research of America, Sarasota, Florida, USA) was implanted subcutaneously between the shoulder blades two days before implanting MCF7 and MCF7-L cells. MCF7 and MCF7-L cells were implanted in 8-week-old female nu/nu mice. LNCaP cells were implanted in 8-week-old male nu/nu mice. The IGF-MTX conjugate was administered in 2 mM HCl, 1% glycerol. MTX was dissolved in PBS. […]

[5] = test system: MCF7-L tumors; assay: In vivo tumor growth inhibition, MCF7-L xenografts; parameters: species or system nu/nu mice; conditions: day 22; IV days 0 and 5; IGF-MTX (long-R3-IGF-1-methotrexate) 10 nmol of MTX/g, free MTX 40 nmol/g
Experimental: as §1, with “mice.” for “mice. LNCaP cells were implanted in 8-week-old male nu/nu mice. The IGF-MTX conjugate was administered in 2 mM HCl, 1% glycerol. MTX was dissolved in PBS.”
The second in vivo study was conducted using an estrogen-dependent MCF7 strain, MCF7-L. Tumor cells were implanted, and mice were monitored for tumor growth. […]

[6] = molecular target: T1, dihydrofolate reductase (DHFR) (Homo sapiens, UniProt P00374); assay: Dihydrofolate reductase inhibition assay (Sigma-Aldrich kit); assay type: biochemical; conditions: IC50 in nEq/L divided by MTX per IGF; read-out: inhibition constant in terms of protein concentration
T1 construct: purchased Sigma-Aldrich
T1 sequence (P00374 1-187): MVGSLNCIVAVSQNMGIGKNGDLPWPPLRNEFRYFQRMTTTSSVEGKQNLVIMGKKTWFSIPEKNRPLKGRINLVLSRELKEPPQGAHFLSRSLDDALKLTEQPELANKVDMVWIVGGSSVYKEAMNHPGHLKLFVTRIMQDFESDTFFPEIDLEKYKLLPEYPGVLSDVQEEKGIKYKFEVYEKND
Experimental: The experiments were done with the dihydrofolate reductase assay kit from Sigma-Aldrich (St. Louis, MO, USA), according to the manufacturer's instructions. In the assay dihydrofolate reductase is mixed with pH 7.5 buffer. […] It was incubated for 30 seconds to allow inhibitor binding. Then NADPH is added to 50 uM final concentration, and then dihydrofolic acid is added to 60 uM final concentration. The reaction is monitored by measuring absorbance at 340 nm.

[7] = test system: LNCaP tumors; assay: In vivo tumor growth inhibition, LNCaP xenografts; parameters: species or system nu/nu mice; conditions: LNCaP model, 8 nmol/g IGF-MTX vs. 50 nmol/g MTX
Experimental: as §1, with “back.” for “back. An estrogen pellet (0.5 mg estradiol, 60-day release, Innovative Research of America, Sarasota, Florida, USA) was implanted subcutaneously between the shoulder blades two days before implanting MCF7 and MCF7-L cells. MCF7 and MCF7-L cells were implanted in 8-week-old female nu/nu mice. LNCaP cells were implanted in 8-week-old male nu/nu mice. The IGF-MTX conjugate was administered in 2 mM HCl, 1% glycerol. MTX was dissolved in PBS.”
In a final in vivo study, prostate cancer LNCaP cells were implanted intradermally on day 0 in mice, which were then randomized to different treatment groups. […] Tumor size was much smaller in the groups treated with 8 nmol/g or 3.2 nmol/g of the IGF-MTX conjugate (dosage expressed as moles of each MTX molecule) compared to mice treated with higher doses of free MTX (50, 20 or 8 nmol/g). […]

[8] = Solubility of IGF-1R ligand-MTX conjugates; assay type: physicochemical; conditions: phosphate buffered saline, or any neutral pH solution containing salt, over about 50 mM NaCl
[9] = test system: LNCaP cells; conditions: 48 hours, nM methotrexate groups, McTavish et al. 2009; cited from earlier work
[10] = molecular target: IGF receptors (Homo sapiens, UniProt P08069); assay: Competition binding of refolded IGF fusion proteins to IGF receptors against radioactive wild type IGF (Example 2); conditions: refolded 3 hours at room temperature, read-out: approximate binding constants (KDs)
Experimental: 2 ml of each of the original Ni eluates from Example 1 was mixed with about an equal volume of 100 mM glycine, 6 M urea, pH 9.5, concentrated by ultrafiltration in a CENTRICON 3 kDa filter unit, then brought up again in that buffer and concentrated to about 420 ul. Then they were diluted to 2 mg/ml for 403IGF, 764IGF, and 765IGF, and 4 mg/ml for 784IGF and 2.4 mg/ml for 785IGF.
200 ul of each of these was mixed rapidly with 1.8 ml of refold buffer. Refold buffer was 1.4 M urea, 100 mM glycine, 0.5 M NaCl, 19% ethanol, 0.5 mM GSSG, 4 mM GSH, pH 9.5. They were refolded at room temperature for 3 hours, and then tested in a binding assay for competition binding to IGF receptors against […] radioactive wild type IGF (Perkin Elmer, Inc.) For comparison, commercial Long-R3-IGF (LR3IGF) was also tested.

[11] = molecular target: T2, type 1 IGF receptors (IGF-1R) on MCF7 cells (Homo sapiens, UniProt P08069); assay: Competition binding assay to IGF-1 receptor on MCF7 cells versus I-125-labeled IGF-1; conditions: FIG. 1 assay
T2 construct: type 1 IGF receptors that are abundant on MCF7 cells; host or cells: MCF7
Experimental: Theory of assay: Radioactive ^125I labeled insulin-like growth factor-1 (IGF-1) competes with a test ligand for binding to type 1 IGF receptors that are abundant on MCF7 cells (a human breast cancer cell line) in vitro.
MCF7 cell media: 500 mL MEM, 0.01 mg/mL bovine insulin; 5 mL sodium pyruvate, 5 mL non-essential amino acids, 10 mL sodium bicarbonate, 10 mL fetal bovine serum, 5 mL penicillin/streptomycin.
MCF7 cells (ATCC HTB-22) were plated at 20,000 cells per well in a volume of 0.5 mL/well in a 48-well tissue culture plate (flat bottom with low evaporation lid) and placed in a cell culture incubator set at 37° C. with 5% CO2. After 2-3 days in culture the plates were washed 2× with 0.5 mL per well of cold binding assay buffer (100 mM Hepes-NaOH, pH 7.2; 120 mM NaCl; 5 mM KCl; 1.2 mM MgSO4; 0.1% BSA). After the final wash, 0.5 mL of binding assay buffer was added to each well and the plates are placed at 4° C. for 2 to 6 hours.
Test ligands were prepared at a concentration of 10 micromolar (long-R3-IGF) or 20 micromolar (765IGF and IGF-MTX) in 5 mM HCl in a volume of 200 ul. […] For long-R3, the lyophilized commercial material is dissolved at 1.0 mg/ml in 10 mM HCl and this is diluted to a concentration of 91 ug/ml for a 10 uM solution. […]
The plates were then incubated overnight at 4° C. […] Cells were lysed with 0.5 mL 300 mM NaOH, 1% SDS and the lysates were counted on a gamma counter.

[12] = test system: soluble IGF binding proteins; conditions: compared to wild-type IGF-1; Francis 1992, Tomas 1993, U.S. Pat. No. 4,876,242; cited from earlier work

T2 sequence (P08069 31-736 limits assumed): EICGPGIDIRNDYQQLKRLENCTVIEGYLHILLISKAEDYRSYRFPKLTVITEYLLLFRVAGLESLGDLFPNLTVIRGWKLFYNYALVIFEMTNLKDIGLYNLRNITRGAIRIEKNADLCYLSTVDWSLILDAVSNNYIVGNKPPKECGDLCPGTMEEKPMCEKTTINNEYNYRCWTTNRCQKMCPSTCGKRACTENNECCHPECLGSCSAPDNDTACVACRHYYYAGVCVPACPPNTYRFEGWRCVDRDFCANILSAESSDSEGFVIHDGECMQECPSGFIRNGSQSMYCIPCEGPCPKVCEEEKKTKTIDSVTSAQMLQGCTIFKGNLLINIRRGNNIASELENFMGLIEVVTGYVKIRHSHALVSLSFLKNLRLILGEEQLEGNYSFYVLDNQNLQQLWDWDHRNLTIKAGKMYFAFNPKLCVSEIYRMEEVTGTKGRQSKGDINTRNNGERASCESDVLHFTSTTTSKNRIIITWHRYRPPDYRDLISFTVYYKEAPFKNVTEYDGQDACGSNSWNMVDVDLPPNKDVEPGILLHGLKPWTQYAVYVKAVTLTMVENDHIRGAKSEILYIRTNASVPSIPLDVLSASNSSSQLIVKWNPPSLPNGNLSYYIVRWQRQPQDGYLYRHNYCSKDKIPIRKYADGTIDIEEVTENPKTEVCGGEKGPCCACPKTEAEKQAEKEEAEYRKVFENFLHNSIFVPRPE
T2 sequence (P08069 741-1367 partner limits assumed): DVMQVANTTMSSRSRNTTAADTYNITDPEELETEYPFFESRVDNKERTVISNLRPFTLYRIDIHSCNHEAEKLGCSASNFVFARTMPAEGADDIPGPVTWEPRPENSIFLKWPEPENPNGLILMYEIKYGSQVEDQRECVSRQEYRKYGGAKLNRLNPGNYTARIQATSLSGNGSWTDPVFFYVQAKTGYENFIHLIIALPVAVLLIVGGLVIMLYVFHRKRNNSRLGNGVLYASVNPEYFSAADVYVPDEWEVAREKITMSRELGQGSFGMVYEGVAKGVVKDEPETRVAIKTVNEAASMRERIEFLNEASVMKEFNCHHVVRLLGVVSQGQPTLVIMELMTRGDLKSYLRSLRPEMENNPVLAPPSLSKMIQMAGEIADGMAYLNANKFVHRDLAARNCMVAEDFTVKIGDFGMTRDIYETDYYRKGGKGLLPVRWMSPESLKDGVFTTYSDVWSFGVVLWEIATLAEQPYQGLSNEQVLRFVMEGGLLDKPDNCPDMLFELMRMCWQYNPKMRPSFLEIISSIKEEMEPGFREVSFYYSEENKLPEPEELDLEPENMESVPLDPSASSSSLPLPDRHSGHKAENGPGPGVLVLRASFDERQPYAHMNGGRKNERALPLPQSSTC
IGF receptors, sequence (P08069 31-736 limits assumed): as the sequence (P08069 31-736 limits assumed) above
IGF receptors, sequence (P08069 741-1367 partner limits assumed): as the sequence (P08069 741-1367 partner limits assumed) above

Molecule: CN(Cc1cnc2nc(N)nc(N)c2n1)c1ccc(C(=O)N[C@@H](CCC(=O)O)C(=O)O)cc1 [Methotrexate, methotrexate]
- IC50 [1]: 88 nM
- inhibition of proliferation compared with IGF-MTX [2]: significantly greater inhibition than IGF-MTX
- IC50 ([3]; Homo sapiens, MCF7, parallel assay, free drug): 17 nM
- IC50 of MTX lower than IGF-MTX ([3]; MCF-7 cells in vitro): about 50 fold
- tumor growth over 12 days of observation [4]: tumors continued to grow
- tumor growth inhibition [5]: inhibited about equally

B1: LR3IGF-MTX (conjugate)
chain: MFPAMPLSSLFVNGPRTLCGALVDALQFVCGDRGFYFNKPTGYGSSSRRAPQTGIVDECCFRSCDLRRLEMYCAPLKPAKSEA
- IC50 [6]: 35 nM
- more effective than free MTX at fold lower molar dose of MTX groups [7]: at least 6 fold
- solubility [8]: low solubility
- IC50 [9]: ~1000 nM

B2: LR3IGF: commercial Long-R3-IGF, variant of IGF-1, SEQ ID NO: 5 (protein)
chain: MFPAMPLSSLFVNGPRTLCGALVDALQFVCGDRGFYFNKPTGYGSSSRRAPQTGIVDECCFRSCDLRRLEMYCAPLKPAKSEA
- Kd [10]: ~1 nM
- Kd [11]: ~3 nM
- binding affinity to the soluble IGF binding proteins [12]: reduced binding affinity
